A short description of the series: collision cross section of modified peptide (TIMS, N2, iRT-aligned); higher = larger / more extended gas-phase ion. Here is the method: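 1/K0 was aligned run-wise to spiked iRT peptides and converted to CCS in N2 (Mason-Schamp). Values are the mean of 1-3 technical replicates for the most abundant feature at each charge state.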
Setting [1] is: charge state: 2, modification: Glutarylation.
Where [2] appears, read: charge state: 2, modification: Biotin.
Setting [3] is: charge state: 3, modification: Biotin.
Where [4] appears, read: charge state: 2, modification: Malonyl.
Setting [5] is: charge state: 2, modification: Formyl.
[6] abbreviates: charge state: 2, modification: Succinyl.
[7] abbreviates: charge state: 2, modification: Nitro (Y).
The mark [8] stands for this setting: charge state: 3, modification: Succinyl.
The mark [9] stands for this setting: charge state: 3, modification: Glutarylation.
Setting [10] is: charge state: 2, modification: Phospho (Y).
Setting [11] is: charge state: 2, modification: Methyl (K).
The mark [12] stands for this setting: charge state: 3, modification: Methyl (K).
[13] abbreviates: charge state: 3, modification: Citrullination (R).
[14] abbreviates: charge state: 2, modification: hydroxyisobutyryl.
[15] abbreviates: charge state: 3, modification: hydroxyisobutyryl.
[16] abbreviates: charge state: 3, modification: Methyl (R).
[17] abbreviates: charge state: 2, modification: Trimethyl (K).
Where [18] appears, read: charge state: 3, modification: Trimethyl (K).
Setting [19] is: charge state: 3, modification: Dimethyl (K).
Where [20] appears, read: charge state: 2, modification: Propionyl.
The mark [21] stands for this setting: charge state: 2, modification: Hydroxyproline.
[22] abbreviates: charge state: 3, modification: Hydroxyproline.
Where [23] appears, read: charge state: 2, modification: Acetyl (K).

± gives the standard deviation.

Among the data in the supplement of paper PMC10598134 are collision cross section values, retold here.

In turn, “TVSKVDDFLANEAK [_TVSK(Gluratylation)VDDFLANEAK_]” registered a collision cross section under setting [1] of 427.28 ± 0.47 Å².

In turn, “TQAYQDQKPGTSGLR [_TQAYQDQK(Biotin)PGTSGLR_]” yielded a collision cross section under setting [2] of 446.01 ± 0.23 Å² and a collision cross section under setting [3] of 500.74 ± 0.34 Å².

As to “AAQASDLEKIHLDEK [_AAQASDLEK(Malonyl)IHLDEK_]”, the collision cross section reads like this: under setting [4], 460.56 ± 1.1 Å²; (charge state: 3, modification: Malonyl) 500.48 Å².

Consider AAINQKLIETGER [_AAINQK(Formyl)LIETGER_], for which, under setting [5], the collision cross section was 399.86 ± 0.2 Å².

For “GTITVSAQELKDNR [_GTITVSAQELK(Biotin)DNR_]”, the collision cross section is 437.8 ± 0.23 Å² under setting [2] and 500.75 Å² under setting [3].

As for LEEVTGKLQVAR [_LEEVTGK(Succinyl)LQVAR_], the collision cross section under setting [6] came out at 394.87 ± 0.77 Å².

Sequence AQSYAQQLGR [_AQSY(Nitro (Y))AQQLGR_] gave a collision cross section under setting [7] of 354.17 ± 0.17 Å².

Under setting [8], “SPPLPEHQKIPCNSAEPK [_SPPLPEHQK(Succinyl)IPCNSAEPK_]” showed a collision cross section of 539.73 ± 2.2 Å².

As for “ASDTSSETVFGKR [_ASDTSSETVFGK(Malonyl)R_]”, under setting [4], the collision cross section was 387.3 ± 0.61 Å².

Consider ITGKNQVTATK [_ITGK(Succinyl)NQVTATK_], for which the collision cross section is, setting by setting: under setting [6], 364.93 ± 0.74 Å²; under setting [8], 446.25 Å².

In turn, “VFIGNLNTLVVKKK [_VFIGNLNTLVVK(Gluratylation)KK_]” registered a collision cross section under setting [9] of 521.05 ± 1.8 Å².

As to VELCSFSGYK [_VELCSFSGY(Phospho (Y))K_], the collision cross section under setting [10] was 372.99 ± 0.08 Å².

As to “STGLELETPSLVPVKK [_STGLELETPSLVPVK(Methyl (K))K_]”, the collision cross section is given as 452.34 ± 2.6 Å² under setting [11] and 516.69 ± 3.1 Å² under setting [12].

Sequence “VGVEVPDVNIEGPEGKLK [_VGVEVPDVNIEGPEGK(Malonyl)LK_]” returned a collision cross section under setting [4] of 458.25 ± 0.64 Å².

Turning to “IQNGAQGIRFIYTR [_IQNGAQGIR(Citrullination (R))FIYTR_]”, the collision cross section under setting [13] was determined as 506.23 Å².

“PANEKATDDYHYEK [_PANEK(hydroxyisobutyryl)ATDDYHYEK_]” registered a collision cross section under setting [14] of 446.18 ± 0.51 Å² and a collision cross section under setting [15] of 509.04 ± 1.9 Å².

With ITGKNQVTATK [_ITGK(Butyryl)NQVTATK_], the collision cross section (charge state: 2, modification: Butyryl) is 370.52 ± 0.71 Å².

For the sequence “FSAYIKNSNPALNDNLEK [_FSAYIK(Gluratylation)NSNPALNDNLEK_]”, the collision cross section under setting [1] was found to be 487.96 ± 2 Å² and the collision cross section under setting [9] was determined as 547.09 ± 1.3 Å².

On to “TLQKQSVVYGGK [_TLQK(Gluratylation)QSVVYGGK_]”, for which the collision cross section under setting [1] came to 399.42 ± 0.6 Å².

As for “VNVEAPDVNLEGLGGKLK [_VNVEAPDVNLEGLGGK(Formyl)LK_]”, the collision cross section under setting [5] is listed as 459.19 ± 1.2 Å².

Regarding “SLGEPAAGEGSAKR [_SLGEPAAGEGSAK(Malonyl)R_]”, the collision cross section under setting [4] turned out to be 366.04 ± 1.1 Å².

As for “IPQEKCILQTDVK [_IPQEK(Methyl (K))CILQTDVK_]”, the collision cross section under setting [11] is recorded as 433.64 ± 1.1 Å² and the collision cross section under setting [12] worked out at 464.28 ± 2.7 Å².

On to “AGQKLIDVNHYAK [_AGQK(Methyl (K))LIDVNHYAK_]”, for which the collision cross section is, setting by setting: under setting [11], 421.24 ± 1.5 Å²; under setting [12], 475.12 ± 2.7 Å².

Take “LLALSGPGGGRGR [_LLALSGPGGGR(Methyl (R))GR_]”: the collision cross section runs as follows: (charge state: 2, modification: Methyl (R)) 387.94 ± 0.53 Å²; under setting [16], 446.53 ± 3.2 Å².

For “LLEEEDSKLK [_LLEEEDSK(Trimethyl (K))LK_]”, the collision cross section turned out to be 388.34 ± 1.1 Å² under setting [17] and 441.46 ± 2.4 Å² under setting [18].

Under setting [6], “GFCFITYTDEEPVKK [_GFCFITYTDEEPVK(Succinyl)K_]” yielded a collision cross section of 465.85 ± 1.1 Å².

Take “DKALPLEAEVAPVK [_DK(hydroxyisobutyryl)ALPLEAEVAPVK_]”: under setting [14], the collision cross section was determined as 422.26 ± 0.83 Å².

In turn, “FLQEFYQDDELGK [_FLQEFY(Nitro (Y))QDDELGK_]” came in with a collision cross section under setting [7] of 428.07 ± 1.5 Å².

Consider “DLTTAGAVTQCYR [_DLTTAGAVTQCY(Nitro (Y))R_]”, for which the collision cross section under setting [7] came out at 399.32 ± 0.8 Å² and the collision cross section (charge state: 3, modification: Nitro (Y)) is 462.24 Å².

Turning to “GRGAANDSTQFTVAGR [_GR(Citrullination (R))GAANDSTQFTVAGR_]”, the collision cross section by setting is: (charge state: 2, modification: Citrullination (R)) 411.84 ± 0.81 Å²; under setting [13], 488.59 ± 0.56 Å².

For “GTISAPGKVVTAAAQAK [_GTISAPGK(Dimethyl (K))VVTAAAQAK_]”, the collision cross section reads like this: (charge state: 2, modification: Dimethyl (K)) 470.82 ± 0.68 Å²; under setting [19], 493.04 ± 1.7 Å².

As for “TGGTQTDLFTCGKCK [_TGGTQTDLFTCGK(GlyGly (K))CK_]”, the collision cross section is, setting by setting: (charge state: 2, modification: GlyGly (K)) 442.06 Å²; (charge state: 3, modification: GlyGly (K)) 489.77 ± 1.1 Å².

With “VDIDAPDVSIEGPDAKLK [_VDIDAPDVSIEGPDAK(Succinyl)LK_]”, the collision cross section under setting [6] came out at 469.67 ± 0.79 Å².

Sequence LEQVEKELLR [_LEQVEK(Propionyl)ELLR_] displayed a collision cross section under setting [20] of 387.92 ± 0.44 Å².

Turning to “VFIGNLNTLVVKKK [_VFIGNLNTLVVK(hydroxyisobutyryl)KK_]”, the collision cross section under setting [15] was found to be 515.31 ± 2.1 Å².

Consider “FPGVGVLPGVPTGAGVKPK [_FPGVGVLPGVPTGAGVKP(Hydroxyproline)K_]”, for which the collision cross section is 440.08 ± 1.4 Å² under setting [21] and 556.97 ± 11 Å² under setting [22].

The sequence YVGESEANIR [_Y(Phospho (Y))VGESEANIR_] had a collision cross section under setting [10] of 370.09 ± 0.95 Å².

As to “GETASKLQSEISR [_GETASK(Gluratylation)LQSEISR_]”, the collision cross section runs as follows: under setting [1], 403.5 ± 0.6 Å²; under setting [9], 470.57 Å².

As for “ASDTSSETVFGKR [_ASDTSSETVFGK(Succinyl)R_]”, the collision cross section is reported as 396.57 ± 0.25 Å² under setting [6] and 482.91 ± 3.3 Å² under setting [8].

For DFDTALKHYDK [_DFDTALK(Succinyl)HYDK_], the collision cross section is listed as 404.59 ± 1.1 Å² under setting [6] and 465.49 ± 2.9 Å² under setting [8].

As to “PGGEGPQCEKTTDVK [_PGGEGPQCEK(Acetyl (K))TTDVK_]”, the collision cross section under setting [23] is given as 415.43 ± 2 Å².

“DYSSGFGGKYGVQADR [_DYSSGFGGK(Formyl)YGVQADR_]” returned a collision cross section under setting [5] of 429.11 ± 0.79 Å².

For the sequence “ANLEKAQAELVGTADEATR [_ANLEK(Dimethyl (K))AQAELVGTADEATR_]”, the collision cross section under setting [19] was found to be 525.41 ± 0.76 Å².

For the sequence “ATVASSTQKFQDLGVK [_ATVASSTQK(hydroxyisobutyryl)FQDLGVK_]”, the collision cross section by setting is: under setting [14], 453.68 ± 1.4 Å²; under setting [15], 498.28 ± 1.6 Å².

For “IHVQSSSDSSDEPAEKR [_IHVQSSSDSSDEPAEK(Gluratylation)R_]”, the collision cross section reads like this: under setting [1], 455.23 ± 1.5 Å²; under setting [9], 511.69 ± 2 Å².

On to “FGDSRGGGGNFGPGPGSNFR [_FGDSR(Methyl (R))GGGGNFGPGPGSNFR_]”, for which the collision cross section under setting [16] was 500.57 ± 1.4 Å².

Regarding “TEVLSPNSKVESK [_TEVLSPNSK(Trimethyl (K))VESK_]”, the collision cross section is, setting by setting: under setting [17], 405.78 ± 0.61 Å²; under setting [18], 479.92 ± 1.6 Å².

Consider “VPGALAAAKAAK [_VP(Hydroxyproline)GALAAAKAAK_]”, for which the collision cross section is, setting by setting: under setting [21], 368.8 ± 0.56 Å²; under setting [22], 444.57 ± 2.8 Å².

AYPLADAHLTK [_AY(Nitro (Y))PLADAHLTK_] displayed a collision cross section under setting [7] of 382.67 ± 0.55 Å².

For the sequence “ANEKTESSSAQQVAVSR [_ANEK(Crotonyl)TESSSAQQVAVSR_]”, the collision cross section is reported as 431.52 ± 7.9 Å² (charge state: 2, modification: Crotonyl) and 536.98 ± 2.1 Å² (charge state: 3, modification: Crotonyl).

In the case of “TLTPASSPVSSPSKHGDR [_TLTPASSPVSSPS(HexNAc (ST))KHGDR_]”, the collision cross section (charge state: 3, modification: HexNAc (ST)) worked out at 519.55 ± 0.18 Å².

“YEEIVKEVSTYIK [_YEEIVK(Dimethyl (K))EVSTYIK_]” registered a collision cross section under setting [19] of 492.52 Å².

For the sequence “INNFSADIKDSK [_INNFSADIK(Propionyl)DSK_]”, the collision cross section under setting [20] stood at 401.7 ± 0.42 Å².

In the case of “LQEKVESAQSEQK [_LQEK(hydroxyisobutyryl)VESAQSEQK_]”, the collision cross section reads like this: under setting [14], 422.92 ± 0.52 Å²; under setting [15], 502.35 ± 2.1 Å².

Regarding “DLGKFQVATDALK [_DLGK(Methyl (K))FQVATDALK_]”, the collision cross section is on record as 399.05 ± 1.1 Å² under setting [11] and 491.01 ± 3.2 Å² under setting [12].

For the sequence “YEEIVKEVSTYIK [_YEEIVK(Acetyl (K))EVSTYIK_]”, the collision cross section under setting [23] came out at 431.89 ± 3.1 Å².

Take SPDEAYAIAKK [_SPDEAYAIAK(Succinyl)K_]: the collision cross section is listed as 374.28 ± 0.24 Å² under setting [6] and 452.6 ± 2.6 Å² under setting [8].

“VFIGNLNTLVVKKK [_VFIGNLNTLVVK(Methyl (K))KK_]” had a collision cross section under setting [12] of 483.02 ± 5.9 Å².
